# Reference: publication doi:10.1101/2025.08.13.669967
# Tests used:
# [1] = biological target: Artemia franciscana ferritin (Artemia franciscana); experiment: cryo-EM structure
# [2] = biological target: Artemia franciscana ferritin (Artemia franciscana); experiment: native gel or EMSA
substance,measurement,setting,value
Artemia franciscana ferritin (natural protein),stoichiometry N,[1],24
same,stoichiometry N,[2],24
